Results on one molecule are retold here after patent US20190185532A1 (UNIVERSITY OF BIRMINGHAM, published 2019).

What all share (assay): flow cytometry on transfected HEK293T cells, streptavidin-PE
A general note: Flow cytometry measures light scatter and fluorescence of single cells or particles in a stream.

The target of assay [1] is T1, CD93 (human, wild type, C-terminal GFP tag, expressed in HEK293T) (human, UniProt Q9NPY3 22-652).
T1 construct: On cells in flow cytometry; as non-reduced HEK293T lysate in far western blots; also called CD93 wild type (wt); cell surface expressed CD93; not shown: C-terminal green fluorescent protein (GFP) tag from vector pEGFP-N1
T1 sequence: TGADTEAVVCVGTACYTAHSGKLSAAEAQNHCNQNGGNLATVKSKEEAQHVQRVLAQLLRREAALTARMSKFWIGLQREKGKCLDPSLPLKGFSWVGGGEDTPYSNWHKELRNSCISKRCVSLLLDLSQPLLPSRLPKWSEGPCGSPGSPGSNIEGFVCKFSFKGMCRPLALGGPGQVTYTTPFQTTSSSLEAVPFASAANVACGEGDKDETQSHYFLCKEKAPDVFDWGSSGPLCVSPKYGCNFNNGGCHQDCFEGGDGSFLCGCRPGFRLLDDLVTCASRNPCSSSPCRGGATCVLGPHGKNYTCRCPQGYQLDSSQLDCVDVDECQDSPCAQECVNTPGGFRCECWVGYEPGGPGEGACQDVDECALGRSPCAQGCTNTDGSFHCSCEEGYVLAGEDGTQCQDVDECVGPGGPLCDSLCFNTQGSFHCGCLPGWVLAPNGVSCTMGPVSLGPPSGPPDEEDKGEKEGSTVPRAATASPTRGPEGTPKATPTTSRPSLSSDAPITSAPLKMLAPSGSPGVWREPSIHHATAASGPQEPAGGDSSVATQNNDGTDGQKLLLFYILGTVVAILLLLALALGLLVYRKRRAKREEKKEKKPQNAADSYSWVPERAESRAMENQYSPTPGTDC
The text has this: (§1) The minimal CLEC14A binding fragment is highlighted in black. (B,C) HEK293T were transfected with truncation mutants. Lysates were far western blotted under reduced conditions with CLEC14A extracellular domain fused to an Fc tag (CLEC14A-ECD-Fc) and western blotted by use of His tag antibodies. (B) The smallest binding fragment was identified as MMRN2⁴⁸⁷⁻⁸²⁰, MMRN2^FL fails to bind CLEC14A-ECD-Fc. (C) The smallest MMRN2 fragment binding CLEC14A is MMRN2⁵³⁰⁻⁶²⁴. (D) MMRN2⁴⁹⁵⁻⁶⁷⁴ and MMRN2⁴⁹⁵⁻⁶⁰³ bind to streptavidin under reducing conditions after biotinylation. (E) Flow cytometry histograms of HEK293T transfected with GFP tagged CTLD group 14 family members and stained with biotinylated MMRN2⁴⁹⁵⁻⁶⁷⁴ (grey line), confirming binding to CLEC14A and CD93 but not thrombomodulin. Streptavidin-PE was used as a control for background binding (grey shaded).
(§2) The human MMRN2⁴⁹⁵⁻⁶⁷⁴ fragment along with the non-CLEC14A binding fragment MMRN2⁴⁹⁵⁻⁶⁰³ was expressed in E. coil with a His tag for purification and a BirA tag for specific biotinylation (17). Biotinylated proteins could bind to streptavidin in western blots (FIG. 2D) and MMRN2⁴⁹⁵⁻⁶⁷⁴ could bind to cell surface expressed CLEC14A and CD93 but not thrombomodulin detected by flow cytometry. This confirmed the CLEC14A and CD93 interactions likely occur in the same region of MMRN2 (FIG. 2E).
(§3) HUVEC or transfected HEK293T cells were detached from tissue culture plates using cell dissociation buffer or scraped and 5×10⁵ cells were stained with 20 ug/mL of antibody of interest or 20 μg/mL of recombinant protein. In blocking experiments, hCLEC14A-ECD-Fc was incubated with 2× molar excess of antibody or recombinant protein on ice for 1 hour. Flow cytometry buffer (PBS with 0.2% (w/v) BSA and 0.02% (w/v) sodium azide) was used for all wash and incubation steps. Samples were analysed on a FACSCalibur machine (BD Biosciences). […] Isotype control staining or human Fc alone was used as background fluorescence and this was subtracted from the geometric mean fluorescence intensity of each sample.

The target in assay [2] is T2, CLEC14A (human, wild type, C-terminal GFP tag, expressed in HEK293T) (human, UniProt Q86T13 22-490).
T2 construct: On cells in flow cytometry; as non-reduced HEK293T lysate in far western blots; also called CLEC14A wt; cell surface expressed CLEC14A; not shown: C-terminal green fluorescent protein (GFP) tag from vector pEGFP-N1
T2 sequence: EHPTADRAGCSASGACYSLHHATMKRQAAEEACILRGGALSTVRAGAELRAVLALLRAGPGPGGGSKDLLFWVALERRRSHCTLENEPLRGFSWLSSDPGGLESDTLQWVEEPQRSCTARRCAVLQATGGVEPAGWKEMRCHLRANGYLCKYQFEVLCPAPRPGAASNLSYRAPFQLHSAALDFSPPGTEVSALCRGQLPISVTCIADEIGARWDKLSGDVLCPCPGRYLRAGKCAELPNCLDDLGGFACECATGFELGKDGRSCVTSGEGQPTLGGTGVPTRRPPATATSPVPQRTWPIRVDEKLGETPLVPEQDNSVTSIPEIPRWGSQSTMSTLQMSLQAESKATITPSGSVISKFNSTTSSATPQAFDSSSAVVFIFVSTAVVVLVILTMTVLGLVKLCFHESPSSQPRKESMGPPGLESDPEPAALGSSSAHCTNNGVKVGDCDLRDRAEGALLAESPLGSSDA
Source text: as §1, §2, §3

For assay [3], the target named is T3, thrombomodulin (human, C-terminal GFP tag, expressed in HEK293T) (human, UniProt P07204 19-575).
T3 construct: whole, on cells; On cells in flow cytometry; as non-reduced HEK293T lysate in far western blots; also called THBD; THBD wt; not shown: C-terminal green fluorescent protein (GFP) tag from vector pEGFP-N1
T3 sequence (P07204 19-575): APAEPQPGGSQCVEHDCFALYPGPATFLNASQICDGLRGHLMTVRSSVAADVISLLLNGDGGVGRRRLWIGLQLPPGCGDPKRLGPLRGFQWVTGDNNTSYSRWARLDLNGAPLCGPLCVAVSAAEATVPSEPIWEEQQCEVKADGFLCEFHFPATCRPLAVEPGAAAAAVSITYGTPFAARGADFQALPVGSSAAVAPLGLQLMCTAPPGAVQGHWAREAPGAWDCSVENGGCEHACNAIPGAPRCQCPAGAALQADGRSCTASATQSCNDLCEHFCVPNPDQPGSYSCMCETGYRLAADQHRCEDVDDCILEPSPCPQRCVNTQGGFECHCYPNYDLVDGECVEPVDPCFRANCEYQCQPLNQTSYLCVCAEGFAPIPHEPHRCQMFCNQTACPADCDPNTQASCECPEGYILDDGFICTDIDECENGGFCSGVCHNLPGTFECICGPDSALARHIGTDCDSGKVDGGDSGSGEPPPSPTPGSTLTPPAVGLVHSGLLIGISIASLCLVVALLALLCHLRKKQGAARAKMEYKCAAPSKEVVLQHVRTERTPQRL
Source text: as §1, §2, §3

B1: biotinylated MMRN2^495-674 (human, expressed in E. coli with a His tag and a BirA tag) (ligand)
chain: QKLYLDLDVIREGQRDATRALEETQVSLDERRQLDGSSLQALQNAVDAVSLAVDAHKAEGERARAATSRLRSQVQALDDEVGALKAAAAEARHEVRQLHSAFAALLEDALRHEAVLAALFGEEVLEEMSEQTPGPLPLSYEQIRVALQDAASGLQEQALGWDELAARVTALEQASEPPRP
modifications: biotin on the BirA tag
notes: Used for staining of transfected HEK293T cells in flow cytometry, detected with streptavidin-PE; not shown: BirA tag and His tag (vector pET23a)
For the molecule B1, the binding result in assay [1] is “binds”; in assay [2], “binds”; in assay [3], “no binding (tested: 20 µg/mL)”.
